Literature values as cited in paper PMC12404997.
pKd: −log10 of the molar value.

Molecular target: RhoA (Homo sapiens) (UniProt P61586)
Sequence of UniProt P61586 (P61586 1-190): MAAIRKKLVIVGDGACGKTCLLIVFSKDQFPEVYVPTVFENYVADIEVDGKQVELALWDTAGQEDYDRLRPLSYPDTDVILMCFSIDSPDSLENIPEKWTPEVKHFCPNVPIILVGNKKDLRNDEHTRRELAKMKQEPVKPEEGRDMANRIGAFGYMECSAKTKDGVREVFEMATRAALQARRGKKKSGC

anillin (from UniProt Q9NQW6)
pKd: 5.15
